Reference: patent US20220041691A1, “METHODS FOR DIAGNOSING OR TREATING POST-TRAUMATIC STRESS DISORDER, AND COMPOSITIONS THEREFOR” (Centre for Addiction and Mental Health, priority 2018, published 2022)
Read-outs that look alike come from different tables or passages of the source. Ends that are not written are not given here.

How the values were obtained:
[1] = target: T1, GR (Mus musculus, UniProt P06537); assay: GST pull-down of GR by GST-FKBP51 fragments in mouse brain tissue; type: binding
T1 construct: from tissue; host or cells: mouse brain
T1 sequence (P06537 1-792): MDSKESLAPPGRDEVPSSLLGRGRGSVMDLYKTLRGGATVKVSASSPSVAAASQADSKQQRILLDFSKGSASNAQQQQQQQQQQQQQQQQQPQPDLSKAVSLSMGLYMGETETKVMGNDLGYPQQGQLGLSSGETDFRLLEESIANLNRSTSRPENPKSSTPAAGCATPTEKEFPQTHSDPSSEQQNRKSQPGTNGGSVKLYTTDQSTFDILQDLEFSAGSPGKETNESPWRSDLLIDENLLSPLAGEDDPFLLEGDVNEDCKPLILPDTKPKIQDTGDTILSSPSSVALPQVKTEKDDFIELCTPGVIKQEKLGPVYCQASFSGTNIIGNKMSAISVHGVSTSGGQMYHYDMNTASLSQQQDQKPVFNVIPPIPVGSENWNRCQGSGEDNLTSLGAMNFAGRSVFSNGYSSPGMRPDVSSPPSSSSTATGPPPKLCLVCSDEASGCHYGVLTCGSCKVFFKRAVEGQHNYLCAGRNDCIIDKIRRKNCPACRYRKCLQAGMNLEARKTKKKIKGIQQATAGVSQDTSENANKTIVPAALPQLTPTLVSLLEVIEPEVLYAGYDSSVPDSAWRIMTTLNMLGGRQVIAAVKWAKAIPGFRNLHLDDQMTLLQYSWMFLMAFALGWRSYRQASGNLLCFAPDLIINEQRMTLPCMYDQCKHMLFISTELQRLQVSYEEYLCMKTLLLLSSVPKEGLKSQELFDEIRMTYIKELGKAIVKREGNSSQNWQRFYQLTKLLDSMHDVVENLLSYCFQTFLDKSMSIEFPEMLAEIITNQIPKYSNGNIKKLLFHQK
Description: The present inventors identified that if increased GR-FKBP51 complex levels are part of the pathophysiology of PTSD, then disrupting the complex may rescue behaviors related to PTSD. To develop an agent (in this example, a peptide-based agent) capable of blocking the GR-FKBP51 interaction, experiments were first performed to identify the regions of the GR that are important to bind FKBP51 (and vice versa). Initially, GST-fusion proteins were used encoding the amino-terminus (NT) of GR (GRNT) and the carboxyl-terminus (CT) of GR (GRCT) for affinity purification. […] Extending this strategy, GRNT fragments were examined (see FIG. 8, where the 6 tested GRNT fragments, NT-1, NT-2, NT-3, NT-4, NT-5, and NT-6 are shown). […] Similarly, it was determined that the TPR (tetratricopeptide repeat) domains of FKBP51 bind GR (FIG. 2D). In these studies, GST-fusion proteins of 3 different portions of the FKBP51 protein were prepared (FK1, FK2, and TPR, see FIG. 9) and tested. The TPR fragment was identified as containing the relevant interaction region.
GST-fusion proteins encoding truncated GR fragments were amplified by PCR from full-length human cDNA clones. All constructs were sequenced to confirm the absence of PCR-generated errors. […]

[2] = target: T2, FKBP51-TPR (Homo sapiens, UniProt Q13451); assay: Surface plasmon resonance, binding of FKBP51 TPR domain to GR and its phosphorylation mutants; conditions: Flag-tagged GR immobilized on sensor chip, 25° C.
T2 construct: made in house; host or cells: bacteria
T2 sequence (Q13451 258-457): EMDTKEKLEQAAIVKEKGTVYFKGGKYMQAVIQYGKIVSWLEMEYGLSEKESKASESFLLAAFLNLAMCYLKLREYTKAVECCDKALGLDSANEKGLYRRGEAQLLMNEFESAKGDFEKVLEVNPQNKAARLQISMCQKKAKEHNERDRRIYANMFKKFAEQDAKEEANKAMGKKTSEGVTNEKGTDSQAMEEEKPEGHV
Experimental: The binding of FKBP51 TPR domain to GR and its phosphorylation mutants was determined by surface plasmon resonance using a Reichert SR7500DC instrument. Experiments were conducted at 25° C. with 2000 RU HEK293 expressed FLAG-tagged GR bound onto a FLAG antibody-coated Dextran 50,000 Da chip. Running buffer (PBS, pH 7.4 with 0.005% Tween 20) was used with a flow rate of 25 μl/min. With association time of 300s and dissociation of 240s, binding signals were determined by injecting various concentrations of the GST-FKBP51_TPR.

[3] = target: T3, GFP-FKBP51 (Homo sapiens, UniProt Q13451); assay: Co-immunoprecipitation of Flag-GR (WT, S211A, S211E) with GFP-FKBP51 in transfected HEK293T cells; type: cell-based; conditions: HEK293T cells transfected with GR variant and GFP-FKBP51, n=3
T3 sequence (Q13451 1-457): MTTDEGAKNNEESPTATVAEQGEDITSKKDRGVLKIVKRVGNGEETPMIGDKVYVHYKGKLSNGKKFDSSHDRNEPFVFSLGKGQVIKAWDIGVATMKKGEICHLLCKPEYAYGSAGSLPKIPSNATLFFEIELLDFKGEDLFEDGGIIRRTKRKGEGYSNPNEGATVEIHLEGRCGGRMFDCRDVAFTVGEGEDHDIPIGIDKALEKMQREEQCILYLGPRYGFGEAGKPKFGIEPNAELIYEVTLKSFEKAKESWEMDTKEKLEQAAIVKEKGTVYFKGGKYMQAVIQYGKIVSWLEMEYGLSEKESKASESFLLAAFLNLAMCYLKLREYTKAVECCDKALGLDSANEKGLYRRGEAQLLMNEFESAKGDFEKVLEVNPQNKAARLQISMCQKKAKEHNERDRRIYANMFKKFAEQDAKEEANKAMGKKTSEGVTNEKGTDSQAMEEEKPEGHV
Description: Thus, it was investigated whether the increased GR-FKBP51 seen in fear-conditioned mice and PTSD patients was associated with altered GR S211 phosphorylation. […] Similar results were also seen in samples from PTSD patients (FIG. 5C n=12, p<0.05, t-test). To probe further into how S211 phosphorylation and GR-FKBP51 are related, two GR mutants were generated (see SEQ ID NOs: 10 (S211A) and 11 (S211E) of FIG. 10). S211A is a non-phosphorylated GR mutant and S211E is phosphomimetic GR mutant.
HEK293T cells were maintained as a monolayer culture at 37° C. in Dulbecco's Modified Eagle Medium (DMEM) (Invitrogen) supplemented with 10% fetal bovine serum (Gibco). Cells were grown to 90% confluence before being transiently transfected with DNA constructs by X-treme GENE 9 transfection reagent (Roche), following the manufacturer's instructions. About 24-48 hrs after transfection, cells were used for experiments.
Co-immunoprecipitation and Western blot analyses were performed as previously described.^24, 25, 26 For co-immunoprecipitation, 500˜1000 μg solubilized protein was extracted from whole mouse brain and incubated with primary antibody or control IgG (2˜4 μg) for 4 hrs at 4° C., followed by the addition of 25 μl protein A/G plus agarose (Santa Cruz Biotechnology) for 12 hrs. Pellets were washed, boiled for 5 min in SDS sample buffer and subjected to SDS-PAGE. 50˜100 μg of total protein extract was used as control in each experiment. After transfer of proteins into nitrocellulose, membranes were Western blotted with the primary antibodies. The intensity of protein level was quantified by densitometry (software: ImageLab, Bio-Rad).
Mutants of Flag-GR and GST-GR-NT were created with the QuickChange site-directed mutagenesis kit (Stratagene, La Jolla, Calif.). All mutants were confirmed by DNA sequencing.

[4] = read-out: KD for binding FKBP51 (SPR)

| pull-down of GR by GST-FKBP51 fragment, Western blot [1] | Kd [2, 4] | GR-FKBP51 complex level (Flag-GR co-immunoprecipitated with GFP-FKBP51) compared to wild-type GR [3] | GR-FKBP51 complex level (Flag-GR co-immunoprecipitated with GFP-FKBP51) compared to wild-type GR ([3]; listed as S211A-GR) | Kd ([2]; figure legend values, read-out: KD for binding FKBP51-TPR (SPR)) | Molecule |
| --- | --- | --- | --- | --- | --- |
| – | 3.9 ± 0.01 µM | no significant difference | – | 3.9 µM | S211E GR: phosphomimetic GR mutant, Flag-tagged (protein, Flag tag; Amino Acid Sequence of S211E GR Mutant (phosphomimetic GR mutant), phosphomimetic GR mutant, Flag-tagged) MDSKESLTPGREENPSSVLAQERGDVMDFYKTLRGGATVKVSASSPSLAVASQSDSKQRRLLVDFPKGSVSNAQQPDLSKAVSLSMGLYMGETETKVMGNDLGFPQQGQISLSSGETDLKLLEESIANLNRSTSVPENPKSSASTAVSAAPTEKEFPKTHSDVSSEQQHLKGQTGTNGGNVKLYTTDQSTFDILQDLEFSSGSPGKETNEEPWRSDLLIDENCLLSPLAGEDDSFLLEGNSNEDCKPLILPDTKPKIKDNGDLVLSSPSNVTLPQVKTEKEDFIELCTPGVIKQEKLGTVYCQASFPGANIIGNKMSAISVHGVSTSGGQMYHYDMNTASLSQQQDQKPIFNVIPPIPVGSENWNRCQGSGDDNLTSLGTLNFPGRTVFSNGYSSPSMRPDVSSPPSSSSTATTGPPPKLCLVCSDEASGCHYGVLTCGSCKVFFKRAVEGQHNYLCAGRNDCIIDKIRRKNCPACRYRKCLQAGMNLEARKTKKKIKGIQQATTGVSQETSENPGNKTIVPATLPQLTPTLVSLLEVIEPEVLYAGYDSSVPDSTWRIMTTLNMLGGRQVIAAVKWAKAIPGFRNLHLDDQMTLLQYSWMFLMAFALGWRSYRQSSANLLCFAPDLIINEQRMTLPCMYDQCKHMLYVSSELHRLQVSYEEYLCMKTLLLLSSVPKDGLKSQELFDEIRMTYIKELGKAIVKREGNSSQNWQRFYQLTKLLDSMHEVVENLLNYCFQTFLDKTMSIEFPEMLAEIITNQIPKYSNGNIKKLLFHQK |
| can “pull-down” | – | – | – | – | GST-TPR: GST-fusion protein of FKBP51 tetratricopeptide repeat (TPR) domain (protein, left off: a dimerising Fc or GST, GST-fusion protein of FKBP51 tetratricopeptide repeat (TPR) domain) EMDTKEKLEQAAIVKEKGTVYFKGGKYMQAVIQYGKIVSWLEMEYGLSEKESKASESFLLAAFLNLAMCYLKLREYTKAVECCDKALGLDSANEKGLYRRGEAQLLMNEFESAKGDFEKVLEVNPQNKAARLQISMCQKKAKEHNERDRRIYANMFKKFAEQDAKEEANKAMGKKTSEGVTNEKGTDSQAMEEEKPEGHV |

The next lines start with the molecule.

| Molecule | pull-down of GR by GST-FKBP51 fragment, Western blot [1] | Kd [2, 4] | GR-FKBP51 complex level (Flag-GR co-immunoprecipitated with GFP-FKBP51) compared to wild-type GR [3] | GR-FKBP51 complex level (Flag-GR co-immunoprecipitated with GFP-FKBP51) compared to wild-type GR ([3]; listed as S211A-GR) | Kd ([2]; figure legend values, read-out: KD for binding FKBP51-TPR (SPR)) |
| --- | --- | --- | --- | --- | --- |
| GST-TPR3: GST-fusion protein of FKBP51 TPR fragment 3 (GEAQLLMNEFESAKGDFEKVLEVNPQNKAARLQISMCQKKAKEHNERDRR; also: GST fusion protein) | can “pull-down” | – | – | – | – |
| S211A GR: non-phosphorylated GR mutant, Flag-tagged (protein, Flag tag; Amino Acid Sequence of S211A GR Mutant (non-phosphorylated GR mutant), non-phosphorylated GR mutant, Flag-tagged) MDSKESLTPGREENPSSVLAQERGDVMDFYKTLRGGATVKVSASSPSLAVASQSDSKQRRLLVDFPKGSVSNAQQPDLSKAVSLSMGLYMGETETKVMGNDLGFPQQGQISLSSGETDLKLLEESIANLNRSTSVPENPKSSASTAVSAAPTEKEFPKTHSDVSSEQQHLKGQTGTNGGNVKLYTTDQSTFDILQDLEFSSGSPGKETNEAPWRSDLLIDENCLLSPLAGEDDSFLLEGNSNEDCKPLILPDTKPKIKDNGDLVLSSPSNVTLPQVKTEKEDFIELCTPGVIKQEKLGTVYCQASFPGANIIGNKMSAISVHGVSTSGGQMYHYDMNTASLSQQQDQKPIFNVIPPIPVGSENWNRCQGSGDDNLTSLGTLNFPGRTVFSNGYSSPSMRPDVSSPPSSSSTATTGPPPKLCLVCSDEASGCHYGVLTCGSCKVFFKRAVEGQHNYLCAGRNDCIIDKIRRKNCPACRYRKCLQAGMNLEARKTKKKIKGIQQATTGVSQETSENPGNKTIVPATLPQLTPTLVSLLEVIEPEVLYAGYDSSVPDSTWRIMTTLNMLGGRQVIAAVKWAKAIPGFRNLHLDDQMTLLQYSWMFLMAFALGWRSYRQSSANLLCFAPDLIINEQRMTLPCMYDQCKHMLYVSSELHRLQVSYEEYLCMKTLLLLSSVPKDGLKSQELFDEIRMTYIKELGKAIVKREGNSSQNWQRFYQLTKLLDSMHEVVENLLNYCFQTFLDKTMSIEFPEMLAEIITNQIPKYSNGNIKKLLFHQK | – | 0.412 µM | significantly higher | higher levels of the GR-FKBP51 complex | – |
